The source of these data is article PMC11252331.

Assay [1] has as its target untagged ∆N∆PDZ HTRA1 R274Q used for NMR DOSY (human) (UniProt Q92743). The experiment in a line: NMR DOSY; 100 µM HTRA1 alone, 50 mM potassium phosphate pH 6.7, 10% D2O, 25 °C.
For assay [2], the target named is VDAC2 peptide (C-terminus of Voltage Dependent Anion-selective Channel isoform 2). The experiment in a line: VDAC2 titration of cleavage rate of peptidic fluorescence-quenched substrate, fitted to the hyperbolic weak-binding equation. Conditions: substrate 2 µM; HTRA1 wt 30 nM; R274Q 300 nM.
In assay [3] the target is ΔN HTRA1 D174R-S328A (proteolytically inactive corrector variant) (human) (UniProt Q92743). The experiment in a line: SEC-MALS; Superdex 200 Increase 10/300, 2x PBS, 56 µl of 10 mg/ml protein (273 µM monomer equivalent; A173T 6.5 mg/ml, 178 µM); single proteins or D174R-S328A + R274Q mixed at a 1:1 ratio.
For assay [4], the target named is ΔN HTRA1 A252T (human) (UniProt Q92743). Nature of the assay: cross-linking; 0.5 µM HTRA1, 50 mM NaPi, 50 mM NaCl pH 8.0, 37 °C, 0.5% glutaraldehyde 2 min; silver staining or Western blot; single proteins or mixtures.
Assay [5] shares this target. Nature of the assay: SEC; analytical SEC, Agilent AdvanceBio SEC 300 Å column, 2x PBS, 10 µl of 10 mg/ml protein (273 µM monomer equivalent; A173T 6.5 mg/ml, 178 µM); single proteins or mixtures. On the technique in general: Size exclusion chromatography separates by hydrodynamic size, large species first.
For assay [6] the target is unchanged. Nature of the assay: SEC-MALS; Superdex 200 Increase 10/300, 2x PBS, 56 µl of 10 mg/ml protein (273 µM monomer equivalent; A173T 6.5 mg/ml, 178 µM); single proteins or D174R-S328A + R274Q mixed at a 1:1 ratio.
Assay [7] has as its target ΔN HTRA1 wild type (human HTRA1 lacking the N-terminal IGFBP7-like fragment) (human) (UniProt Q92743). Nature of the assay: native MS; binding experiments, 5 µM protein with VDAC2 peptide added at molar ratios, 200 mM ammonium acetate pH 6.8.
Assay [8] has the same target. Nature of the assay: cross-linking; 0.5 µM HTRA1, 50 mM NaPi, 50 mM NaCl pH 8.0, 37 °C, 0.5% glutaraldehyde 2 min; silver staining or Western blot; single proteins or mixtures. A general note: In western blotting, separated proteins are transferred to a membrane and probed.
Assay [9] has the same target. The experiment in a line: SEC; analytical SEC, Agilent AdvanceBio SEC 300 Å column, 2x PBS, 10 µl of 10 mg/ml protein (273 µM monomer equivalent; A173T 6.5 mg/ml, 178 µM); single proteins or mixtures.
For assay [10] the target is unchanged. Nature of the assay: SEC-MALS; Superdex 200 Increase 10/300, 2x PBS, 56 µl of 10 mg/ml protein (273 µM monomer equivalent; A173T 6.5 mg/ml, 178 µM); single proteins or D174R-S328A + R274Q mixed at a 1:1 ratio.

For “untagged ∆N∆PDZ HTRA1 R274Q used for NMR DOSY (from UniProt Q92743 158-375) (domain or fragment)”, in assay [1], the stoichiometry N (usually a count of units in the complex or per binding partner) turned out to be 3.

Regarding “ΔN HTRA1 wild type (human HTRA1 lacking the N-terminal IGFBP7-like fragment) (from UniProt Q92743) R274Q”, in assay [2], the Kd (in general, the concentration at which binding is half-saturated) turned out to be 12.1 µM.

For the substance “ΔN HTRA1 D174R-S328A (proteolytically inactive corrector variant) (from UniProt Q92743 158-480) (domain or fragment)”, the stoichiometry N in assay [3] amounted to 3.

“ΔN HTRA1 A252T (from UniProt Q92743 158-480) (domain or fragment)”: the stoichiometry N with ΔN HTRA1 A252T (human) [4], with ΔN HTRA1 A252T (human) [5] and in the assay with ΔN HTRA1 A252T (human) [6] was 3 throughout.

In the case of “ΔN HTRA1 wild type (human HTRA1 lacking the N-terminal IGFBP7-like fragment) (from UniProt Q92743 158-480) (domain or fragment)”, the stoichiometry N in assay [7], in assay [8], in assay [9] and in assay [10] was 3 throughout.
